Source: PMC4673825, “Active site coupling in Plasmodium falciparum GMP synthetase is triggered by domain rotation” (Nature Communications, 2015)
Numbering of substitutions follows the chain as printed.

Legend:
[1] = test system: O=c1[nH]c(=O)c2ncn([C@@H]3O[C@H](COP(=O)(O)O)[C@@H](O)[C@H]3O)c2[nH]1; experiment: purified protein; type: biochemical, Plasmodium falciparum; conditions: 2 mM ATP, 5 mM Gln, 20 mM MgCl2, pH 8.5, 25 °C, Gln-dependent
N = experiment: purified protein; conditions: 2 mM ATP, 150 μM XMP, 20 mM MgCl2, pH 8.5, 25 °C
PfATPPase = molecular target: T1, PfATPPase (Plasmodium falciparum, UniProt Q8IJR9); experiment: ammonia-dependent GMP formation, absorbance decrease at […] nm; conditions: NH4Cl-dependent, 20 mM MgCl2, pH 8.5, 25 °C
T1 construct: gene GMPS
T1 sequence (Q8IJR9 237-555): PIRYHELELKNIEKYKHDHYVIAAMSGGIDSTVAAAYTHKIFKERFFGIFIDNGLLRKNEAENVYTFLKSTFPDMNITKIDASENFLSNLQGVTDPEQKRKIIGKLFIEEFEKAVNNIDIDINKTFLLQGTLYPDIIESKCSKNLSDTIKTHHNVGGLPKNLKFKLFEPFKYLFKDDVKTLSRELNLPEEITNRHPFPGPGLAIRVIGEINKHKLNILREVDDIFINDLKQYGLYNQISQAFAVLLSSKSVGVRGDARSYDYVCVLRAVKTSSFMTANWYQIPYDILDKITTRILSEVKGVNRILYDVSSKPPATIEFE

[2] = molecular target: the molecule itself; experiment: SAXS; in solution, 1.1-11 mg/ml in 20 mM Tris pH 7.4, 50 mM NaCl; data at 11 mg/ml analysed; ab initio envelope superimposed on the dimer crystal structure
SAXS = molecular target: the molecule itself; experiment: SAXS
purified protein [3] = substrate: O=c1[nH]c(=O)c2ncn([C@@H]3O[C@H](COP(=O)(O)O)[C@@H](O)[C@H]3O)c2[nH]1; experiment: purified protein; conditions: NH4Cl-dependent, 20 mM MgCl2, pH 8.5, 25 °C
purified protein [4] = substrate: N; experiment: purified protein; conditions: 20 mM MgCl2, pH 8.5, 25 °C
[5] = molecular target: the molecule itself; experiment: SEC; analytical gel filtration, Superdex 200 HR 10/30, 50 mM Tris-HCl pH 7.4, 100 mM KCl; 100 μl of 20 μM protein, each injected individually

PfGMPS (Plasmodium falciparum 3D7)
Km [1]: 10 ± 2 µM | kcat [1]: 0.733 ± 0.0167 s⁻¹ | kcat/Km [1]: 73300 M⁻¹ s⁻¹ | Km (N): 19000 ± 1000 µM | kcat (N): 0.917 s⁻¹ | kcat/Km (N): 48.3 M⁻¹ s⁻¹

Nc1ncnc2c1ncn2[C@@H]1O[C@H](COP(=O)(O)OP(=O)(O)OP(=O)(O)O)[C@@H](O)[C@H]1O [ATP]
Km (PfATPPase): 56 ± 16 µM

B1: Plasmodium falciparum GMP synthetase (PfGMPS), wild type (enzyme, UniProt Q8IJR9 1-555, looked up)
chain: MEGEEYDKILVLNFGSQYFHLIVKRLNNIKIFSETKDYGVELKDIKDMNIKGVILSGGPYSVTEAGSPHLKKEVFEYFLEKKIPIFGICYGMQEIAVQMNGEVKKSKTSEYGCTDVNILRNDNINNITYCRNFGDSSSAMDLYSNYKLMNETCCLFENIKSDITTVWMNHNDEVTKIPENFYLVSSSENCLICSIYNKEYNIYGVQYHPEVYESLDGELMFYNFAYNICKCKKQFDPIRYHELELKNIEKYKHDHYVIAAMSGGIDSTVAAAYTHKIFKERFFGIFIDNGLLRKNEAENVYTFLKSTFPDMNITKIDASENFLSNLQGVTDPEQKRKIIGKLFIEEFEKAVNNIDIDINKTFLLQGTLYPDIIESKCSKNLSDTIKTHHNVGGLPKNLKFKLFEPFKYLFKDDVKTLSRELNLPEEITNRHPFPGPGLAIRVIGEINKHKLNILREVDDIFINDLKQYGLYNQISQAFAVLLSSKSVGVRGDARSYDYVCVLRAVKTSSFMTANWYQIPYDILDKITTRILSEVKGVNRILYDVSSKPPATIEFE
notes: GMP synthetase of Plasmodium falciparum, EC 6.3.5.2, full-length enzyme of 555 residues: GATase domain 1-236 and ATPPase domain 237-555; also called guanosine 5'-monophosphate synthetase; ligand-free PfGMPS; source: E. coli AT2465 (pQE30PfGMPS), purified (HisTrap, Superdex 200 size exclusion)
stoichiometry N [2]: 2

B2: PfGMPS_C89A (glutamine-bound inactive mutant of P. falciparum GMP synthetase) (enzyme)
chain: B1 chain with C89A
stoichiometry N (SAXS): 2

B3: PfATPPase (isolated ATP pyrophosphatase domain of PfGMPS) (domain or fragment, Plasmodium falciparum, UniProt Q8IJR9 237-555, looked up)
chain: T1 sequence (Q8IJR9 237-555)
notes: ATPPase domain of Plasmodium falciparum GMP synthetase, residues 237-555; Cloned into pET-21b(+); also called ATPPase domain; source: E. coli BL21(DE3) (pETPfATPPase), purified (60% ammonium sulfate precipitation, CM-Sepharose cation exchange)
Km (purified protein [3]): 11 ± 4 µM | Km (purified protein [4]): 7000 ± 300 µM | kcat (purified protein [4]): 0.155 ± 0.0017 s⁻¹ | stoichiometry N [5]: 2
